Measured values as given in patent US9950027 (TXP PHARMA, dated 2018).
Where two headings read alike, the source gives them in different places. Side-chain parts run from the residue outwards. [ ]: non-standard residue; d: D form. Ac‑(Lys-Ac)Lys‑Lys = branched amino acid probe attached to the ε-amino group of the lysine

How the values were obtained:
[1] = molecular target: T1, MC4r (human recombinant, CHO cells) (human, UniProt P32245 1-332); test: cell-based or functional assay
[2] = molecular target: T2, MC5r (human recombinant, CHO cells) (human, UniProt P33032 1-325); test: cell-based or functional assay
T2 sequence (P33032 whole entry): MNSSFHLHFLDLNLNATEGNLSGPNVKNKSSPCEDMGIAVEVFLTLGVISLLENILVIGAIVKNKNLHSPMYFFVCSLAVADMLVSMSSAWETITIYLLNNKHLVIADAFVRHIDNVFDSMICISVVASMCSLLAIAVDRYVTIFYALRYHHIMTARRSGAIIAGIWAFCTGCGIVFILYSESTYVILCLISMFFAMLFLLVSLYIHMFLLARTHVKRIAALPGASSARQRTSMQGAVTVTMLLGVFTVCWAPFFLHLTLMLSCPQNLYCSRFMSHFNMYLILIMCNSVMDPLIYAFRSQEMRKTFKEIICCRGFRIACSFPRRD

[3] = molecular target: T3, MC1r (murine B16-F1 cells) (murine, UniProt Q01727 1-315); test: cell-based or functional assay
T3 sequence (Q01727 whole entry): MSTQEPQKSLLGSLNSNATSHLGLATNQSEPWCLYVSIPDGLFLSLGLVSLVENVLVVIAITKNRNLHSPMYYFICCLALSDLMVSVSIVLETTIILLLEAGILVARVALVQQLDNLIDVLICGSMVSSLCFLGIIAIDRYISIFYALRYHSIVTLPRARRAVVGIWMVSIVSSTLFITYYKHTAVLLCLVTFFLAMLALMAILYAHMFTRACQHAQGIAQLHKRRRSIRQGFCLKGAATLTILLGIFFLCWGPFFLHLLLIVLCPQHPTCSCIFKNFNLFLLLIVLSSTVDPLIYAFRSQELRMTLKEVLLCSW

[4] = molecular target: T4, MC3r (human recombinant, CHO cells) (human, UniProt P41968 1-323); test: displacement of 125I-NDP-αMSH, CHO cells expressing human MC3r (method of Example 2, not restated)
T4 construct: whole, on cells
T4 sequence (P41968 whole entry): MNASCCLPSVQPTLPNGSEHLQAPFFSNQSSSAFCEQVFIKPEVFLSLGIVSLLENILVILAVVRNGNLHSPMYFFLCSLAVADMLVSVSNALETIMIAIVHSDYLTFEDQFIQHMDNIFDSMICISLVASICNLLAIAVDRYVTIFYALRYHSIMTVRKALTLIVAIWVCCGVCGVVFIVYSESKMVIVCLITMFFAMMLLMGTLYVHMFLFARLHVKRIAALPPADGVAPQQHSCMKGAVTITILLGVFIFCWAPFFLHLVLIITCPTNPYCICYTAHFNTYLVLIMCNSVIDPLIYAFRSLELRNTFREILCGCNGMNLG
Method: (§1) Murine B16-F1 cells expressing MCr1 are used for determination of binding affinity to and agonist activity against the MC1r. Human recombinant CHO cells expressing MC3r, MC4r or MC5r are used for determination of affinity to or agonist activity against the MC3r, MC4r and MC5r, respectively. […] The test items are tested in a concentration range of 10^-13 to 10^-5M.

[5] = molecular target: T1, MC4r (human recombinant, CHO cells); test: displacement of 125I-NDP-αMSH, CHO cells expressing human MC4r (method of Example 2, not restated)
Method: as §1

[6] = molecular target: T2, MC5r (human recombinant, CHO cells); test: displacement of 125I-NDP-αMSH, CHO cells expressing human MC5r (method of Example 2, not restated)
Method: as §1

[7] = molecular target: T3, MC1r (murine B16-F1 cells); test: displacement of 125I-NDP-αMSH, murine B16-F1 cells expressing MC1r (method of Example 2, not restated)
Method: as §1

[8] = molecular target: T5, recombinant human type 2 Formyl peptide receptor (FPR2) (human, UniProt P25090 1-351); test: cell-based or functional assay
T5 sequence (looked up): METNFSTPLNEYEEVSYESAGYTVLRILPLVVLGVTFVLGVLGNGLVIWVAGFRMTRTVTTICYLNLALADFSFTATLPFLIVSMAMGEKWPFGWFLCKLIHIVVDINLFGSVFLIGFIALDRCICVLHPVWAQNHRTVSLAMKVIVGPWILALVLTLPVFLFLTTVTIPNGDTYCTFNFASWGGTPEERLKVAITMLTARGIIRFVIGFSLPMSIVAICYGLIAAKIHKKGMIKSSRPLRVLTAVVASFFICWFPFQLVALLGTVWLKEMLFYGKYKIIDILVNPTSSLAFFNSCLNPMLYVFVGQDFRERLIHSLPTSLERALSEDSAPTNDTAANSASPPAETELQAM

[9] = molecular target: T4, MC3r (human recombinant, CHO cells); test: displacement of 125I-NDP-αMSH, CHO cells expressing human MC3r; affinity as a multiple of αMSH's
Method: as §1

[10] = molecular target: T1, MC4r (human recombinant, CHO cells); test: displacement of 125I-NDP-αMSH, CHO cells expressing human MC4r; affinity as a multiple of αMSH's
Method: as §1

[11] = molecular target: T4, MC3r (human recombinant, CHO cells); test: radioligand binding, CHO cells expressing human MC3r; affinity as a multiple of αMSH's
[12] = molecular target: T1, MC4r (human recombinant, CHO cells); test: radioligand binding, CHO cells expressing human MC4r; affinity as a multiple of αMSH's
[13] = molecular target: T3, MC1r (murine B16-F1 cells); test: radioligand binding, murine B16-F1 cells expressing MC1r; affinity as a multiple of αMSH's
[14] = molecular target: T6, human GLP-2 receptor (human, UniProt O95838 1-553); test: cell-based or functional assay
T6 sequence (looked up): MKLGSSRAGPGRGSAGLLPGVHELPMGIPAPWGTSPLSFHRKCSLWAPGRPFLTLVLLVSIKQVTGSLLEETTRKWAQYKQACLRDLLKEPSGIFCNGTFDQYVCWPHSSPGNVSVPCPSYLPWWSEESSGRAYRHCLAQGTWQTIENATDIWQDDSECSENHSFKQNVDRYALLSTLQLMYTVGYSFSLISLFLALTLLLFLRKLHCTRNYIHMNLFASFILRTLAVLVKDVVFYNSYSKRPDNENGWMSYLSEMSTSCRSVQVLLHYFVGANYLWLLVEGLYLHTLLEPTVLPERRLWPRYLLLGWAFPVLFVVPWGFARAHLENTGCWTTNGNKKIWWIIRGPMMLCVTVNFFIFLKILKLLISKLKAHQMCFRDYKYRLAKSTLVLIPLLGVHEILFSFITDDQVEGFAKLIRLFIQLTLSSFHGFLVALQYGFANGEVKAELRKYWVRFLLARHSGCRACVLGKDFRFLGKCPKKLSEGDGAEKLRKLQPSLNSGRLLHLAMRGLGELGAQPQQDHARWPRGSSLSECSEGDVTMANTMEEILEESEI

[15] = molecular target: T3, MC1r (murine B16-F1 cells); test: displacement of 125I-NDP-αMSH, murine B16-F1 cells expressing MC1r; affinity as a multiple of αMSH's
Method: as §1

[16] = molecular target: T1, MC4r (human recombinant, CHO cells); test: cell-based or functional assay; remark: listed apart in the source
[17] = molecular target: T2, MC5r (human recombinant, CHO cells); test: cell-based or functional assay; remark: listed apart in the source
[18] = molecular target: T3, MC1r (murine B16-F1 cells); test: cell-based or functional assay; remark: listed apart in the source
[19] = molecular target: T4, MC3r (human recombinant, CHO cells); test: cell-based or functional assay
[20] = molecular target: T3, MC1r (murine B16-F1 cells); test: displacement of 125I-NDP-αMSH, murine B16-F1 cells expressing MC1r
Method: as §1

[21] = molecular target: T4, MC3r (human recombinant, CHO cells); test: displacement of 125I-NDP-αMSH, human recombinant CHO cells expressing MC3r
Method: as §1

[22] = molecular target: T1, MC4r (human recombinant, CHO cells); test: displacement of 125I-NDP-αMSH, human recombinant CHO cells expressing MC4r
Method: as §1

[23] = molecular target: T2, MC5r (human recombinant, CHO cells); test: displacement of 125I-NDP-αMSH, human recombinant CHO cells expressing MC5r
Method: as §1

[24] = molecular target: T2, MC5r (human recombinant, CHO cells); test: displacement of 125I-NDP-αMSH, CHO cells expressing human MC5r; affinity as a multiple of αMSH's
Method: as §1

T1 sequence (P32245 whole entry): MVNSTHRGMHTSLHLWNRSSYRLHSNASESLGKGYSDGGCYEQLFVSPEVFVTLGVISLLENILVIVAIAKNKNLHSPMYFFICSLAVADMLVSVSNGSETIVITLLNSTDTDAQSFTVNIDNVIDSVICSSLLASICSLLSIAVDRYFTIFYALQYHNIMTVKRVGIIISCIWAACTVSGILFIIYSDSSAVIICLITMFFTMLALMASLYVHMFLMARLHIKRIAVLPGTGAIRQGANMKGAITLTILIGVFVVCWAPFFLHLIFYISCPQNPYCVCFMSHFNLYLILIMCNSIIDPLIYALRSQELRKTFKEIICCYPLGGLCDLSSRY

B1: γ-MSH Analogue 1: Ac-(Ac-Lys-Lys)Lys-Tyr-Val-Met-Gly-His-Phe-Arg-DTrp-Asp-Arg-Phe-Gly-NH2 (peptide)
peptide: KYVMGHFRWDRFG
modifications: alpha-amino group of Lys1 acetylated; Ac-Lys-Lys attached to the epsilon-amino group of Lys1; D-Trp at position 9; C-terminal amide
EC50, cAMP accumulation (agonist activity) [1]: 252 nM
EC50, cAMP accumulation (agonist activity) [2]: 555 nM
EC50, cAMP accumulation (agonist activity) [3]: 68 nM
Ki [4]: 15 nM
Ki [5]: 150 nM
Ki [6]: 215 nM
Ki [7]: 3.8 nM

Ac-AMVSEFLK(Ac‑(Lys-Ac)Lys‑Lys)QAW-NH2
EC50, agonist activity (aequorin light emission) [8]: 1560 nM

B2: Analogue 3 (Example 2): Ac-(Ac-Lys-Lys)Lys-Ser-Tyr-Ser-Nle-Glu-His-DPhe-Arg-Trp-Gly-Lys-Pro-Val-NH2 (peptide)
peptide: KSYSXEHFRWGKPV
modifications: alpha-amino group of Lys1 acetylated; Ac-Lys-Lys attached to the epsilon-amino group of Lys1; Nle at position 5 (written X); D-Phe at position 8; C-terminal amide
notes: BAP-modified α-MSH analogue; X = norleucine
MCr binding relative to Control peptide 1 (αMSH) [9]: 41 fold
MCr binding relative to Control peptide 1 (αMSH) [10]: 47 fold

B3: Analogue 2 (Example 2): Ac-(Ac-Lys-Lys)Lys-Ser-Tyr-Ser-Met-Glu-His-Phe-Arg-Trp-Gly-Lys-Pro-(D-Val)-NH2 (peptide)
peptide: KSYSMEHFRWGKPV
modifications: alpha-amino group of Lys1 acetylated; Ac-Lys-Lys attached to the epsilon-amino group of Lys1; D-Val at position 14; C-terminal amide
notes: BAP-modified α-MSH analogue
MCr binding relative to Control peptide 1 (αMSH) [9]: 3.3 fold
MCr binding relative to Control peptide 1 (αMSH) [10]: 8.5 fold

B4: Analogue 5 (Example 3): Ac-(Ac-Lys-Lys)Lys-Tyr-Val-Nle-Gly-His-Phe-Arg-DTrp-Asp-Arg-Phe-Gly-NH2 (peptide)
peptide: KYVXGHFRWDRFG
modifications: alpha-amino group of Lys1 acetylated; Ac-Lys-Lys attached to the epsilon-amino group of Lys1; Nle at position 4 (written X); D-Trp at position 9; C-terminal amide
notes: BAP-modified γ-MSH analogue; X = norleucine
MCr binding affinity relative to αMSH [11]: 38 fold
MCr binding affinity relative to αMSH [12]: 2.8 fold
MCr binding affinity relative to αMSH [13]: 1.9 fold

H-HADGSFSDEMNTILDNLAARDFINWLIQTKITDR-OH [GLP-2 (1-34) control peptide: …]
EC50 (nM), cAMP production (HTRF) [14]: 0.36 nM

Ac-K([Lys-Lys-Ac])SSIISH[dF]RWGKPV-NH2 (BAP-modified α-MSH analogue) [Analogue 4 (Example 2): Ac-(Ac-Lys-Lys)Lys-Ser-Ser-Ile-Ile-Ser-His-DPhe-Arg-Trp-Gly-Lys-Pro-Val-NH2]
MCr binding relative to Control peptide 1 (αMSH) [9]: 42 fold
MCr binding relative to Control peptide 1 (αMSH) [10]: 53 fold
MCr binding relative to Control peptide 1 (αMSH) [15]: 9.4 fold

B5: α-MSH Analogue 1: Ac-(Ac-Lys-Lys)Lys-Ser-Tyr-Ser-Met-Glu-His-Phe-Arg-Trp-Gly-Lys-Pro-Val-NH2 (peptide)
peptide: KSYSMEHFRWGKPV
modifications: alpha-amino group of Lys1 acetylated; Ac-Lys-Lys attached to the epsilon-amino group of Lys1 (branched amino acid probe Ac-(Ac-Lys-Lys)Lys-); C-terminal amide
EC50, cAMP accumulation (agonist activity) [16]: 18 nM
EC50, cAMP accumulation (agonist activity) [17]: 625 nM
EC50, cAMP accumulation (agonist activity) [18]: 8.9 nM
EC50, cAMP accumulation (agonist activity) [19]: 53 nM
Ki [20]: 1.2 nM
Ki [21]: 24 nM
Ki [22]: 26 nM
Ki [23]: 193 nM
MCr binding relative to Control peptide 1 (αMSH) [24]: 2 fold
MCr binding relative to Control peptide 1 (αMSH) [15]: 4 fold

B6: Analogue 8 (Example 3): Ac-(Ac-Lys-Lys)Lys-Tyr-Val-Nle-Gly-His-DPhe-Arg-DTrp-Asp-Arg-Phe-Gly-NH2 (peptide)
peptide: KYVXGHFRWDRFG
modifications: alpha-amino group of Lys1 acetylated; Ac-Lys-Lys attached to the epsilon-amino group of Lys1; Nle at position 4 (written X); D-Phe at position 7; D-Trp at position 9; C-terminal amide
notes: as for B4
MCr binding affinity relative to αMSH [11]: 37 fold
MCr binding affinity relative to αMSH [12]: 10.7 fold
MCr binding affinity relative to αMSH [13]: 7.3 fold

B7: Analogue 7 (Example 3): Ac-(Ac-Lys-Lys)Lys-Tyr-Val-Nle-Gly-His-DPhe-Arg-Trp-Asp-Arg-Phe-Gly-NH2 (peptide)
peptide: KYVXGHFRWDRFG
modifications: alpha-amino group of Lys1 acetylated; Ac-Lys-Lys attached to the epsilon-amino group of Lys1; Nle at position 4 (written X); D-Phe at position 7; C-terminal amide
notes: as for B4
MCr binding affinity relative to αMSH [11]: 46 fold
MCr binding affinity relative to αMSH [12]: 37 fold

B8: Analogue 6 (Example 3): Ac-(Ac-Lys-Lys)Lys-Tyr-Val-Nle-Gly-His-Phe-Arg-Trp-Asp-Arg-Phe-Gly-NH2 (peptide)
peptide: KYVXGHFRWDRFG
modifications: alpha-amino group of Lys1 acetylated; Ac-Lys-Lys attached to the epsilon-amino group of Lys1; Nle at position 4 (written X); C-terminal amide
notes: as for B4
MCr binding affinity relative to αMSH [11]: 4.6 fold
MCr binding affinity relative to αMSH [12]: 2.9 fold
